We go through one protein from paper PMC3537844 (Nature structural & molecular biology, 2012).

This data set concerns the molecule itself. As to the kind of experiment: crystal structure.

B1: Methylated MxiAC (318-686) (domain or fragment, Shigella flexneri, UniProt P0A1I5 318-686, looked up)
chain: VVEKEKSLSESDSSGYTGTFDIDNSHDSSLAMIENLDAISSETVPLILLFAENKINANDMEGLIERIRSQFFIDYGVRLPTILYRTSNELKVDDIVLLINEVRADSFNIYFDKVCITDENGDIDALGIPVVSTSYNERVISWVDVSYTENLTNIDAKIKSAQDEFYHQLSQALLNNINEIFGIQETKNMLDQFENRYPDLLKEVFRHVTIQRISEVLQRLLGENISVRNLKLIMESLALWAPREKDVITLVEHVRASLSRYICSKIAVSGEIKVVMLSGYIEDAIRKGIRQTSGGSFLNMDIEVSDEVMETLAHALRELRNAKKNFVLLVSVDIRRFVKRLIDNRFKSILVISYAEIDEAYTINVLKTI
modifications: reductive methylated by dimethylamine borane complex (DMAB) and formaldehyde
As usually defined, the stoichiometry N is the number of molecules, sites or subunits per partner or assembly. As to B1, the “stoichiometry N” value was determined as 9.
